Publication doi:10.1101/2020.07.09.196626

Experiments:
[1] = molecular target: V5 epitope-tagged soluble ZIKV E, covalently stabilised dimer carrying A264C (sE-cvD) (Zika virus (strain ArD158095)); assay: non-reducing SDS-PAGE
[2] = molecular target: ZIKV full-length E protein carrying A264C (covalent dimer), in virus-like particles (VLP-cvD) (Zika virus (strain PE243)); assay: non-reducing SDS-PAGE with western blot

Q: With “V5 epitope-tagged soluble ZIKV E, covalently stabilised dimer carrying A264C (sE-cvD) (domain or fragment)” as the substance, how does the stoichiometry N [1] read?
A: The stoichiometry N was 2.

Q: Which stoichiometry N [2] does the source give for “ZIKV full-length E protein carrying A264C (covalent dimer), in virus-like particles (VLP-cvD) (natural protein)” here?
A: The stoichiometry N was 2.
